Kd data for six sequences are collected here from publication PMC5713450.

The target in data set [1] is Protein A (cited studies) (UniProt P02976). The data set can be described thus: ELONA. As to conditions: BB: 100 mM NaCl, 20 mM Tris, 10 mM MgCl2, 5 mM KCl, 1 mM CaCl2, pH 7.6; MST in BBT (0.005% Tween 20) at 25 C, 2bind MST with 0.05% Tween 20; EIS in BB + 2 mM …; cited from earlier work.
The target of data set [2] is Protein A (UniProt P02976). Description: MST. Particulars: BB: 100 mM NaCl, 20 mM Tris, 10 mM MgCl2, 5 mM KCl, 1 mM CaCl2, pH 7.6, MST in BBT (0.005% Tween 20) at 25 C, 2bind MST with 0.05% Tween 20, EIS in BB + 2 mM ….
In data set [3] the target is Protein A (cited studies) (UniProt P02976). Description: SPR. As to conditions: BB: 100 mM NaCl, 20 mM Tris, 10 mM MgCl2, 5 mM KCl, 1 mM CaCl2, pH 7.6, MST in BBT (0.005% Tween 20) at 25 C, 2bind MST with 0.05% Tween 20, EIS in BB + 2 mM …, cited from earlier work.
Data set [4] concerns the target Protein A (UniProt P02976). The data set can be described thus: EIS. As to conditions: apparent; 2 mM ferri-/ferrocyanide; Hill h 1.14 +/- 0.15; 3' C6 spacer and thiol; immobilized on gold with MCH; BB: 100 mM NaCl, 20 mM Tris, 10 mM MgCl2, 5 mM KCl, 1 mM CaCl2, pH 7.6; MST in BBT (0.005% Tween 20) at 25 C, 2bind MST with 0.05% Tween 20; EIS in BB + 2 mM ….
Data set [5] has as its target Protein A (cited studies) (UniProt P02976). Description: MST. As to conditions: 5' thiol; BB: 100 mM NaCl, 20 mM Tris, 10 mM MgCl2, 5 mM KCl, 1 mM CaCl2, pH 7.6; MST in BBT (0.005% Tween 20) at 25 C, 2bind MST with 0.05% Tween 20; EIS in BB + 2 mM …; cited from earlier work.
Data set [6] shares this target. Description: RIFTS. As to conditions: aptamer immobilized on porous silicon, h 2.61 +/- 0.69, 3' amino, BB: 100 mM NaCl, 20 mM Tris, 10 mM MgCl2, 5 mM KCl, 1 mM CaCl2, pH 7.6, MST in BBT (0.005% Tween 20) at 25 C, 2bind MST with 0.05% Tween 20, EIS in BB + 2 mM …; cited from earlier work.

Regarding “ATACCAGCTTATTCAATTAGCAACATGAGGGGGATAGAGGGGGTGGGTTCTCTCGGCT [PAA, 5'-biotin]”, in data set [1], the Kd was 23.7 nM.

Regarding “ATACCAGCTTATTCAATTAGCAACATGAGGGGGATAGAGGGGGTGGGTTCTCTCGGCT [PAA, 3'-fluorescent]”, the Kd in data set [2] (BB + 0.05% Tween 20 (2bind), 3' C6 spacer, thiol) came to 111 nM; in data set [2] (BBT + 2 mM ferri-/ferrocyanide, 3' C6 spacer, thiol), 16.4 nM; in data set [2] (BBT, 0.005% Tween 20, no ferri-/ferrocyanide, 3' C6 spacer, thiol) it was 22.4 nM.

Consider “ATACCAGCTTATTCAATTAGCAACATGAGGGGGATAGAGGGGGTGGGTTCTCTCGGCT [PAA, 3'-biotin]”, for which the Kd is 287 nM in data set [3] and 11.3 nM in data set [1].

For the sequence “ATACCAGCTTATTCAATTAGCAACATGAGGGGGATAGAGGGGGTGGGTTCTCTCGGCT [PAA (PA#2/8[S1-58]), 3'-thiol on gold]”, the Kd in data set [4] is 18.5 nM.

On to “ATACCAGCTTATTCAATTAGCAACATGAGGGGGATAGAGGGGGTGGGTTCTCTCGGCT [PAA, 5'-fluorescent]”, for which the Kd was 94.7 nM in data set [5]; 116 nM in data set [2] (BB + 0.05% Tween 20 (2bind), 5' thiol); 1920 nM in data set [3] (5' thiol).

Consider “ATACCAGCTTATTCAATTAGCAACATGAGGGGGATAGAGGGGGTGGGTTCTCTCGGCT [PAA, 3'-amino]”, for which the Kd in data set [6] is 14000 nM.
